According to article PMC10397247:

How the values were obtained:
Assay in all cases: two-hybrid library CCmax;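 also: natural log of median RNA to DNA barcode read ratio; higher means stronger binding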
4H63-AA = target: T1, 4H63-AA; details: mean of both orientations
T1 chain: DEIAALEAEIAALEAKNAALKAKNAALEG

4H3619-AA = target: T2, 4H3619-AA; details: mean of both orientations
T2 chain: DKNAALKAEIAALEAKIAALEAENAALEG

4H2580-AA = target: T3, 4H2580-AA; details: mean of both orientations
T3 chain: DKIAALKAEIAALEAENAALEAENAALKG

4H432-AA = target: T4, 4H432-AA; details: mean of both orientations
T4 chain: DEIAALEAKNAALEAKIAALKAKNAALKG

4H2774-AA = target: T5, 4H2774-AA; details: mean of both orientations
T5 chain: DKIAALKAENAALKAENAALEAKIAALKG

4H133-AA = target: T6, 4H133-AA; details: mean of both orientations
T6 chain: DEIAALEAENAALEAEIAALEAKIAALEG

4H2621-AA = target: T7, 4H2621-AA; details: mean of both orientations
T7 chain: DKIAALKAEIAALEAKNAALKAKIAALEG

4H2604-AA = target: T8, 4H2604-AA; details: mean of both orientations
T8 chain: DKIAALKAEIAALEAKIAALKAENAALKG

4H3094-AA = target: T9, 4H3094-AA; details: mean of both orientations
T9 chain: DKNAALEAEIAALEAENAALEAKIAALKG

4H2903-AA = target: T10, 4H2903-AA; details: mean of both orientations
T10 chain: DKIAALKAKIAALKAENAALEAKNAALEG

4H1449-AA = target: T11, 4H1449-AA; details: mean of both orientations
T11 chain: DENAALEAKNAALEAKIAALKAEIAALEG

4H3449-AA = target: T12, 4H3449-AA; details: mean of both orientations
T12 chain: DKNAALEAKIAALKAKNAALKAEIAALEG

4H235-AA = target: T13, 4H235-AA; details: mean of both orientations
T13 chain: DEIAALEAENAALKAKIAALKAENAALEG

4H2961-AA = target: T14, 4H2961-AA; details: mean of both orientations
T14 chain: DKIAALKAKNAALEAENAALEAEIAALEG

4H3629-AA = target: T15, 4H3629-AA; details: mean of both orientations
T15 chain: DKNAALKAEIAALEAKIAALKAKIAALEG

4H2760-AA = target: T16, 4H2760-AA; details: mean of both orientations
T16 chain: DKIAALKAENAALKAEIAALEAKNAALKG

4H249-AA = target: T17, 4H249-AA; details: mean of both orientations
T17 chain: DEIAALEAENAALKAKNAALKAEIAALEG

4H3974-AA = target: T18, 4H3974-AA; details: mean of both orientations
T18 chain: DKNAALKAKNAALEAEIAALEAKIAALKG

4H3049-AA = target: T19, 4H3049-AA; details: mean of both orientations
T19 chain: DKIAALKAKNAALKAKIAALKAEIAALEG

4H3777-AA = target: T20, 4H3777-AA; details: mean of both orientations
T20 chain: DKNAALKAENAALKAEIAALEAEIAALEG

4H1593-AA = target: T21, 4H1593-AA; details: mean of both orientations
T21 chain: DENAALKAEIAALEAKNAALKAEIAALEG

4H1384-AA = target: T22, 4H1384-AA; details: mean of both orientations
T22 chain: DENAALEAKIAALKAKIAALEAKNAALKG

4H1349-AA = target: T23, 4H1349-AA; details: mean of both orientations
T23 chain: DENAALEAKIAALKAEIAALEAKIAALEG

4H446-AA = target: T24, 4H446-AA; details: mean of both orientations
T24 chain: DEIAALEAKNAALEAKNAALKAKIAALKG

4H380-AA = target: T25, 4H380-AA; details: mean of both orientations
T25 chain: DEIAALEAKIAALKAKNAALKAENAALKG

4H2947-AA = target: T26, 4H2947-AA; details: mean of both orientations
T26 chain: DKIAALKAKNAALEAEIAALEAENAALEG

4H3915-AA = target: T27, 4H3915-AA; details: mean of both orientations
T27 chain: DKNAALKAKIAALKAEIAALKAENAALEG

4H324-AA = target: T28, 4H324-AA; details: mean of both orientations
T28 chain: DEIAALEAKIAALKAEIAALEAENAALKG

4H1262-AA = target: T29, 4H1262-AA
T29 chain: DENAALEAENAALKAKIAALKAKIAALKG

4H1878-AA = target: T30, 4H1878-AA; details: mean of both orientations
T30 chain: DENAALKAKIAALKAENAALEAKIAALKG

4H341-AA = target: T31, 4H341-AA; details: mean of both orientations
T31 chain: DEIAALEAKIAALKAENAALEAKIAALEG

B1: 4H1262-AA (peptide)
chain: DENAALEAENAALKAKIAALKAKIAALKG
4H63-AA
  interaction score: -0.668
4H3619-AA
  interaction score: 1.07
4H2580-AA
  interaction score: -1.41
4H432-AA
  interaction score: -1.48
4H2774-AA
  interaction score: 1.29
4H133-AA
  interaction score: 1.64
4H2621-AA
  interaction score: -1.25
4H2604-AA
  interaction score: -0.779
4H3094-AA
  interaction score: -0.633
4H2903-AA
  interaction score: -1.83
4H1449-AA
  interaction score: -0.611
4H3449-AA
  interaction score: -0.766
4H235-AA
  interaction score: -0.797
4H2961-AA
  interaction score: -0.013
4H3629-AA
  interaction score: -0.649
4H2760-AA
  interaction score: 1.09
4H249-AA
  interaction score: -0.555
4H3974-AA
  interaction score: 1.62
4H3049-AA
  interaction score: 1.23
4H3777-AA
  interaction score: 2.49
4H1593-AA
  interaction score: -1.34
4H1384-AA
  interaction score: -0.839
4H1349-AA
  interaction score: 0.283
4H446-AA
  interaction score: -1.67
4H380-AA
  interaction score: -1.85
4H2947-AA
  interaction score: 0.251
4H3915-AA
  interaction score: -0.487
4H324-AA
  interaction score: -1.15
4H1262-AA
  interaction score: 0.551
4H1878-AA
  interaction score: -1.09
4H341-AA
  interaction score: -1.06
